Results reported in patent US20230183354A1 (IMMIOS HOLDING B V, published 2023).

Legend:
[1] = target: T1, human CD103 (integrin Alpha-E) / human integrin Beta-7 heterodimer on cells (human, UniProt P38570 19-1179; P26010 20-798); assay: flow cytometry competition on CD103+CD8+ T cells; pre-incubation with unlabeled 02A; table n=2
T1 construct: the assay field tells which cells; also called hCD103/hBeta7; CHO.K1-hCD103/hBeta7
Method: (§1) Percentage binding of fluorescently labeled mAbs was determined using flow cytometry. Maximum binding was set at 100%.
(§2) Percentage binding of fluorescently labeled mAbs was determined using flow cytometry. Maximum binding was set at 100%

[2] = target: T1, human CD103 (integrin Alpha-E) / human …; assay: binding of 89Zr-labeled mAb to CHO.K1-hCD103/hBeta7 cells, bound activity in counts
[3] = target: T1, human CD103 (integrin Alpha-E) / human …; assay: flow cytometry competition on CD103+CD8+ T cells; pre-incubation with unlabeled MCA708 (f4); table n=1
Method: as §1, §2

[4] = target: T1, human CD103 (integrin Alpha-E) / human …; assay: cell-based ELISA on CHO.K1-hCD103/hBeta7 cells, Df-conjugated mAb, relative absorbance, upper panel
Method: (§3) Wells were washed with PBS and incubated with Rabbit anti-Mouse/IgG-HRP (1:4000, Dako) or Fab specific Goat anti-Human/IgG-HRP (1:4000; Sigma Aldrich) for 1 h at 37° C. Next, wells were washed with PBS and TMB substrate (KPL) was added. The color reaction was stopped by adding 1M HCl solution and the absorbance was measured by a microplate reader (Thermo Scientific).

[5] = target: T1, human CD103 (integrin Alpha-E) / human …; assay: flow cytometry competition on CD103+CD8+ T cells; pre-incubation with unlabeled 03A; table n=2
Method: as §1, §2

[6] = target: T1, human CD103 (integrin Alpha-E) / human …; assay: flow cytometry competition on CD103+CD8+ T cells; pre-incubation with unlabeled 01A; table n=2
Method: as §1, §2

[7] = target: T1, human CD103 (integrin Alpha-E) / human …; assay: cell-based ELISA on CHO.K1-hCD103/hBeta7 cells, relative absorbance, upper panel
Method: as §3

[8] = target: T1, human CD103 (integrin Alpha-E) / human …; assay: flow cytometry competition on CD103+CD8+ T cells; pre-incubation with unlabeled 06A; table n=1
Method: as §1, §2

[9] = target: T1, human CD103 (integrin Alpha-E) / human …; assay: flow cytometry competition on CD103+CD8+ T cells; pre-incubation with unlabeled 02A; table n=1
Method: as §1, §2

[10] = target: T1, human CD103 (integrin Alpha-E) / human …; assay: flow cytometry competition on CD103+CD8+ T cells; pre-incubation with unlabeled 07A; table n=1
Method: as §2

[11] = target: T2, recombinant hCD103/hBeta7 Fc-protein (Acro-Biosystems) (human, UniProt P38570 19-1124; P26010 20-723, limits assumed); assay: ELISA on coated recombinant human CD103/beta7 Fc-protein, OD450-620, lower right panel titled rhCD103/beta7
T2 construct: Bought protein with no catalog number and no construct limits printed; also called recombinant human CD103/Beta7; recombinant hCD103/beta7; not shown: fusion part of the bought 'Fc-protein'
Method: Protein coated 96-well plates were blocked in protein-free blocking buffer (Pierce) for 1.5 hour at 37° C. Plates were washed and incubated for 1 hour at RT with mAb/Fab in 0.1% Tween-20 in PBS. Next, plates were washed with PBS-T and incubated for 1 hour at RT with goat-anti-mouse IgG-HRP conjugate (Southern Biotech) for mAbs, and goat-anti-human Fab-HRP conjugate (Jackson Immuno Research) for the Fab fragments in 0.1% Tween-20 in PBS. […] Reactions were stopped with 0.5 M H2SO4 and absorbances were read at 450 and 610 nm.

[12] = target: T1, human CD103 (integrin Alpha-E) / human …; assay: cell ELISA on CHO.K1-humanCD103/beta7 cells, abs 450-610

T1 sequence (P38570 19-1179 limits assumed, chain 1 of 2): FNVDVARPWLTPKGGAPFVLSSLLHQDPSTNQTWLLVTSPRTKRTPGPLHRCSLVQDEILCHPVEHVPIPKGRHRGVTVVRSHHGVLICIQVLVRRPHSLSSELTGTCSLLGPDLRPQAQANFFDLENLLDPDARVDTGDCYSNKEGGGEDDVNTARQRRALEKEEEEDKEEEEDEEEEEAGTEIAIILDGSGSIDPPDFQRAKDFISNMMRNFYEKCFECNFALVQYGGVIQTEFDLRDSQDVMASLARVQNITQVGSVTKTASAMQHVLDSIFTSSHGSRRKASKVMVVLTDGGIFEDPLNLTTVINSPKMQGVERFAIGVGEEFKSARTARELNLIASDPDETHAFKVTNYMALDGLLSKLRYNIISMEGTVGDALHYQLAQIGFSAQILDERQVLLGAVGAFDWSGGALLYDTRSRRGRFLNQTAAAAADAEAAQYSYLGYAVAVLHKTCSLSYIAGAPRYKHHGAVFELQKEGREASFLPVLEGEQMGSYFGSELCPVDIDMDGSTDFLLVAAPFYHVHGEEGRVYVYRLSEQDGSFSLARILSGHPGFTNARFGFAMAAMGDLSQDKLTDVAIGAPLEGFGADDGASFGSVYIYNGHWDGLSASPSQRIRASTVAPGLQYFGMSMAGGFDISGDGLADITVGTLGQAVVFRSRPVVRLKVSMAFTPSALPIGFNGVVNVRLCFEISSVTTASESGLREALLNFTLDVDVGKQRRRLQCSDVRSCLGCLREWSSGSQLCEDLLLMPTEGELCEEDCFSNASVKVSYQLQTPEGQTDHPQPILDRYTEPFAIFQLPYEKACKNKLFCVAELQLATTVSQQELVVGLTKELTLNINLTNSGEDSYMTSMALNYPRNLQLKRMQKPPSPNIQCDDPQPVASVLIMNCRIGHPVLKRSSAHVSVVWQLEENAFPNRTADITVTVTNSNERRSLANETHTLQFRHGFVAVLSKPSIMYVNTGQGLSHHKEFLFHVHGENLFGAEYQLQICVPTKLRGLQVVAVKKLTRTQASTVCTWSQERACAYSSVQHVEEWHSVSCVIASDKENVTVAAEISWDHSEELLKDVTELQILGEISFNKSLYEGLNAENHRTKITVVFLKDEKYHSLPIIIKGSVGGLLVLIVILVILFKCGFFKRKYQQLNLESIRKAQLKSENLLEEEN
T1 sequence (P26010 20-798 limits assumed, chain 2 of 2): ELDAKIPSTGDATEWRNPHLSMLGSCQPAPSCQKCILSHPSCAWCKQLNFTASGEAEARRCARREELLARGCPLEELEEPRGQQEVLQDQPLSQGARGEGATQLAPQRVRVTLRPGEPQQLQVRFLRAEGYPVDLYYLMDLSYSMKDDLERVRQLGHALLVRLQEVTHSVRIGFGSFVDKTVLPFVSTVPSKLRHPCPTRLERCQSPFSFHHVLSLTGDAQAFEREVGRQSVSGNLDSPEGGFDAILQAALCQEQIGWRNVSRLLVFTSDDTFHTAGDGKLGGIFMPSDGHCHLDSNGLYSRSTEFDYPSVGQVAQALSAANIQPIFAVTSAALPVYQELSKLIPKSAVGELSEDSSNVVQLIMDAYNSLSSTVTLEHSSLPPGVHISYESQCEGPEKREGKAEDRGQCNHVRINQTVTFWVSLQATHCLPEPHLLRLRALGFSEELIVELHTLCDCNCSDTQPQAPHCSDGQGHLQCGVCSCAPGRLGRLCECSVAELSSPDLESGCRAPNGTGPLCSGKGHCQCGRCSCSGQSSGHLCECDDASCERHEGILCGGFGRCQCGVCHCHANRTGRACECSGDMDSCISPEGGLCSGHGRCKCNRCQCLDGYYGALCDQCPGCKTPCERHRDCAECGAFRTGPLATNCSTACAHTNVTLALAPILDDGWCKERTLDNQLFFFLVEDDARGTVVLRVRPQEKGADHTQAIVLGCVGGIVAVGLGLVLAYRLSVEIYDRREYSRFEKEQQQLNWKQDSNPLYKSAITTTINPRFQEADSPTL
T2 sequence (P38570 19-1124 limits assumed, chain 1 of 2): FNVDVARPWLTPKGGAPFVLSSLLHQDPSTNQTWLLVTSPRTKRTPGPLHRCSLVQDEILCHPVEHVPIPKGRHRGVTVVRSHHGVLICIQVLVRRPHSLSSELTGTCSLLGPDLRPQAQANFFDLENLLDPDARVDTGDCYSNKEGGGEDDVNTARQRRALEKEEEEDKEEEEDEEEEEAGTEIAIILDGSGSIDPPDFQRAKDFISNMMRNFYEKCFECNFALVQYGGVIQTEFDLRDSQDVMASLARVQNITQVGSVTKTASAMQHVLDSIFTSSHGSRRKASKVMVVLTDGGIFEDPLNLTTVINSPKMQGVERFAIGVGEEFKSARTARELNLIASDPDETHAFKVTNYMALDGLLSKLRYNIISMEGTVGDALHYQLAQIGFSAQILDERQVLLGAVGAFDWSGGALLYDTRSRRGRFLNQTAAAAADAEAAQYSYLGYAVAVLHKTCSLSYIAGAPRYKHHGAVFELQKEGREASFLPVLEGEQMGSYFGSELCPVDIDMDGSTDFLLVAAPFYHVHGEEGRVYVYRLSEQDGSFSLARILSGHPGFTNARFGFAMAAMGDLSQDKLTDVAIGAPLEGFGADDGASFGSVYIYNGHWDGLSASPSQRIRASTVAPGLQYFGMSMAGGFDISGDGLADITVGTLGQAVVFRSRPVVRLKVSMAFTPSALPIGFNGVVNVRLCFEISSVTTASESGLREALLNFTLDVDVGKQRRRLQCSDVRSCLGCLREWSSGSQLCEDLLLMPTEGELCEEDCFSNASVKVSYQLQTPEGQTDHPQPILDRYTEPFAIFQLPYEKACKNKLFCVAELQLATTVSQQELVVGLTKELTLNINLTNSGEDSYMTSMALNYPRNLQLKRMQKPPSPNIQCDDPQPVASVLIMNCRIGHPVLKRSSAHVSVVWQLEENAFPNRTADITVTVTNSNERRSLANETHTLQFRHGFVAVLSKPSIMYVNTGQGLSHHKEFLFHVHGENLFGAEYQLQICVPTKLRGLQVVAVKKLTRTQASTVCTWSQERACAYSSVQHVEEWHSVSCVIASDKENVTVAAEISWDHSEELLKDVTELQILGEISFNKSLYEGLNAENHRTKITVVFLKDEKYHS
T2 sequence (P26010 20-723 limits assumed, chain 2 of 2): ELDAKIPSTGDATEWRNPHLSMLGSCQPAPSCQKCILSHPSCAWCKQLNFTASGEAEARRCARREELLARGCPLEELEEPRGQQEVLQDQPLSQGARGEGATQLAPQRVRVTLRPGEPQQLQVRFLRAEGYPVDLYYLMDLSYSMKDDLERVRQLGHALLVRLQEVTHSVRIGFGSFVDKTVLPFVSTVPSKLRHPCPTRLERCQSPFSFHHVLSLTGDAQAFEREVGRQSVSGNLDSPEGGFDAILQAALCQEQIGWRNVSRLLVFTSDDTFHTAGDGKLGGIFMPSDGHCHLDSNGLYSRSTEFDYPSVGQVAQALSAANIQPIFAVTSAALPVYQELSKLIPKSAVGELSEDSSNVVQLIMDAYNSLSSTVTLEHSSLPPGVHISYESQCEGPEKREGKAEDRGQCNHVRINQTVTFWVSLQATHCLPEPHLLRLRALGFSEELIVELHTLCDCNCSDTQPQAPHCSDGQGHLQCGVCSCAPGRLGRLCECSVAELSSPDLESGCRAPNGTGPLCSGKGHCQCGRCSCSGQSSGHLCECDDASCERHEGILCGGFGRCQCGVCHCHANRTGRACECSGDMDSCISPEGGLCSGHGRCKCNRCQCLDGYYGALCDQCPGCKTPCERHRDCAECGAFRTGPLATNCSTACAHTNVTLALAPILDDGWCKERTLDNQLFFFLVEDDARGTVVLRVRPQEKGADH

B1: hCD103.05A (antibody, mouse IgG1, V domains shown)
VH: EVQLQQSGPELEKPGASAKISCKASGYSFTGYNMNWVKQSNGKSLEWIGNIDPYYGGTSYNQKFKGKATLTVDKSSSTAYMQLKSLTSEDSAVYYCARSFYGYDAGSPYNYAMDYWGQGTPVTVSP
VL: DIVMTQSHKFMSTSVGDRVSITCKASQDVGTFVAWYQQKPGQSPKLLIYWASTRHTGVPDRFTGSGSGTDFTLTISNVQSEDLADYFCHQYSSYPYTFGGGTQLEIK
notes: Also tested labelled with AF647, conjugated with Df and labelled with 89Zr; these are written under this molecule; also called clone 05A; hCD103.05 mAb
% binding of the fluorescently labeled mAb (IgG pre-incubation = 100) [1]: 4.6%
EC50 (read off the curve) [2]: ~400 ng/mL
% binding of the fluorescently labeled mAb (IgG pre-incubation = 100) [3]: 94.6%
EC50 (read off the curve) [4]: ~40 ng/mL
% binding of the fluorescently labeled mAb (IgG pre-incubation = 100) [5]: 90.9%
% binding of the fluorescently labeled mAb (IgG pre-incubation = 100) [6]: 2.2%
EC50 (read off the curve) [7]: ~40 ng/mL
% binding of the fluorescently labeled mAb (IgG pre-incubation = 100) [8]: 101%
% binding of the fluorescently labeled mAb (IgG pre-incubation = 100) [9]: 4.3%
% binding of the fluorescently labeled mAb (IgG pre-incubation = 100) [10]: 66.3%
EC50 (read off the curve) [11]: ~3 ng/mL

B2: hCD103.07A (antibody, mouse IgG1, V domains shown)
VH: EVQLQESGPSLVKPSQTLSLTCSVTGDSITSGYWNWIRKFPGNKLEYMGYITYSGSTYYNPSLKSRISITRDTSKNQYYLQLNSVTTEDTATYYCARNYYGSSSMDYWGQGTSVTVSS
VL: DIVMTQSQKFMSTSVADRVSVTCKASQNVGSDVAWYQQKPGQSPKSLIYSASYRYSGVPDRFTGSGSGTDFTLTISNVQSEDLAEYFCQQYNSYPSTFGGGTKLEIK
notes: also called clone 07A
% binding of the fluorescently labeled mAb (IgG pre-incubation = 100) [1]: 0.9%
% binding of the fluorescently labeled mAb (IgG pre-incubation = 100) [3]: 92%
% binding of the fluorescently labeled mAb (IgG pre-incubation = 100) [5]: 77.8%
EC50 (read off the curve) [12]: ~10 ng/mL
% binding of the fluorescently labeled mAb (IgG pre-incubation = 100) [6]: 0.7%
% binding of the fluorescently labeled mAb (IgG pre-incubation = 100) [8]: 73.2%
% binding of the fluorescently labeled mAb (IgG pre-incubation = 100) [9]: 0.5%
% binding of the fluorescently labeled mAb (IgG pre-incubation = 100) [10]: 33.7%

B3: hCD103.01A (antibody, V domains shown)
VH: EVQLQESGPSLVKPSQTLSLTCSVTGDSITSGYWNWIRKFPGNKLEYMGYITYSGSTYYNPSLKSRISITRDTSKNQYYLQLNSVTTEDTATYYCTRHYYGSDAMDYWGQGTSVTVSS
VL: DIVMTQSHKFMSTSVGDRVSITCKASQDVSIAVAWYQQRPGQSPKLLIYSASYRYTGVPDRFTGSGSGTDFTFTISSVQAEDLAVYYCQQHYSTPWTFGGGTKLEIK
notes: Also tested labelled with AF647, conjugated with Df and labelled with 89Zr; these are written under this molecule; also called clone 01A; hCD103.01 mAb
% binding of the fluorescently labeled mAb (IgG pre-incubation = 100) [1]: 3%
% binding of the fluorescently labeled mAb (IgG pre-incubation = 100) [3]: 83.9%
EC50 (read off the curve) [4]: ~40 ng/mL
% binding of the fluorescently labeled mAb (IgG pre-incubation = 100) [5]: 97.3%
EC50 (read off the curve) [12]: ~20 ng/mL
% binding of the fluorescently labeled mAb (IgG pre-incubation = 100) [6]: 2.2%
EC50 (read off the curve) [7]: ~40 ng/mL
% binding of the fluorescently labeled mAb (IgG pre-incubation = 100) [8]: 81.8%
% binding of the fluorescently labeled mAb (IgG pre-incubation = 100) [9]: 2.3%
% binding of the fluorescently labeled mAb (IgG pre-incubation = 100) [10]: 27.5%
EC50 (read off the curve) [11]: ~3 ng/mL

B4: hCD103.06A (antibody, mouse IgG1, V domains shown)
VH: QVQLQQPGSELVRPGASVKLSCKASGYTFTSYWMHWVKQRHGQGLEWIGNIYPGSGSTNYDEKFKSKGTLTVDTSSSTAYMHLSSLTSEDSAVYYCTRGVYDNPYYFDYWGQGTTLTVSS
VL: DIQMTQSSSNLSVSLGGRVTITCKASDHINNWLAWYQQKPGNAPRVLISGATSLETGVPSRFSGSGSGKDYTLSITSLQTEDVATYYCQQYWSIPLTFGAGTKLELK
notes: also called clone 06A; hCD103.06 mAb
% binding of the fluorescently labeled mAb (IgG pre-incubation = 100) [1]: 103%
% binding of the fluorescently labeled mAb (IgG pre-incubation = 100) [3]: 0.7%
% binding of the fluorescently labeled mAb (IgG pre-incubation = 100) [5]: 108%
EC50 (read off the curve) [12]: ~40 ng/mL
% binding of the fluorescently labeled mAb (IgG pre-incubation = 100) [6]: 99.1%
% binding of the fluorescently labeled mAb (IgG pre-incubation = 100) [8]: 18.7%
% binding of the fluorescently labeled mAb (IgG pre-incubation = 100) [9]: 104%
% binding of the fluorescently labeled mAb (IgG pre-incubation = 100) [10]: 93.2%
